Assay results taken from patent US20150337019A1 (MANUKAMED HOLDINGS LIMITED PARTNERSHIP, published 2015).
The star is where a group is joined. TNBS = trinitrobenzene sulphonic acid, N-terminal block, O=[N+]([O-])c1cc([N+](=O)[O-])c(*)c([N+](=O)[O-])c1; pNA = O=[N+]([O-])c1ccc(N*)cc1

What follows are binders tested against T1, Cathepsin B from bovine spleen (bovine, UniProt P07688 80-332) (assay: cell-based or functional assay).

Binder	Cathepsin B inhibition test, 2 mM peptide
Ac-Leu-Ile-Arg-OH (also: MGO-modified, site not given here) [MGO-modified Ac-LIR-OH]	0.07
Ac-Leu-Ile-Arg-NH2 [Ac-LIR-NH2]	65.4
Ac-Leu-Val-Lys-OH [Ac-LVK-OH]	144
Ac-Leu-Leu-Lys-NH2 (also: MGO-modified, site not given here) [MGO-modified Ac-LLK-NH2]	137
Ac-Leu-Val-Lys-OH (also: MGO-modified, site not given here) [MGO-modified Ac-LVK-OH]	80.8
Ac-Leu-Leu-Lys-OH [Ac-LLK-OH]	142
Ac-Leu-Leu-Lys-NH2 [Ac-LLK-NH2]	159
Ac-Leu-Val-Lys-NH2 [Ac-LVK-NH2]	92.7
Ac-Leu-Val-Lys-NH2 (also: MGO-modified, site not given here) [MGO-modified Ac-LVK-NH2]	80
Ac-Leu-Leu-Lys-OH (also: MGO-modified, site not given here) [MGO-modified Ac-LLK-OH]	148
Ac-Leu-Ile-Arg-NH2 (also: MGO-modified, site not given here) [MGO-modified Ac-LIR-NH2]	72.6
Ac-Leu-Ile-Arg-OH [Ac-LIR-OH]	128

Target: T1, Cathepsin B from bovine spleen
Assay: cell-based or functional assay
Remark: another data set of the same source

Binder	Cathepsin B inhibition test, 2 mM peptide
H-Met-Gln-Lys-OH (also: MGO-modified, site not given here) [MGO-modified H-MQK-OH]	99.5
Ac-Met-Gln-Lys-OH [Ac-MQK-OH]	121
H-Cys-Asp-Arg-OH [H-CDR-OH]	165
Ac-IFVTMLR-OH (also: MGO-modified, site not given here) [MGO-modified Ac-IFVTMLR-OH]	92.6
{TNBS}-Phe-Ala-Lys-pNA (SMILES C[C@H](NC(=O)[C@H](Cc1ccccc1)Nc1c([N+](=O)[O-])cc([N+](=O)[O-])cc1[N+](=O)[O-])C(=O)N[C@@H](CCCCN)C(=O)Nc1ccc([N+](=O)[O-])cc1) [TNBS-FAK-pNA]	99.3
Ac-Met-Gln-Lys-OH (also: MGO-modified, site not given here) [MGO-modified Ac-MQK-OH]	69.2
H-Met-Gln-Lys-OH [H-MQK-OH]	127
{TNBS}-Phe-Ala-Lys-pNA (also: MGO-modified, site not given here) [MGO-modified TNBS-FAK-pNA]	122
Ac-IFVTMLR-OH [Ac-IFVTMLR-OH]	88.3
Ac-Cys-Asp-Arg-OH [Ac-CDR-OH]	121
H-Met-Thr-Arg-OH (also: MGO-modified, site not given here) [MGO-modified H-MTR-OH]	104
H-Met-Thr-Arg-OH [H-MTR-OH]	143
Ac-Cys-Asp-Arg-OH (also: MGO-modified, site not given here) [MGO-modified Ac-CDR-OH]	78.5
H-IFVTMLR-OH (also: MGO-modified, site not given here) [MGO-modified H-IFVTMLR-OH]	78.7
H-Cys-Asp-Arg-OH (also: MGO-modified, site not given here) [MGO-modified H-CDR-OH]	96
Ac-Met-Thr-Arg-OH [Ac-MTR-OH]	126
Ac-Met-Thr-Arg-OH (also: MGO-modified, site not given here) [MGO-modified Ac-MTR-OH]	119

Target: T1, Cathepsin B from bovine spleen
Assay: cell-based or functional assay
Remark: another data set of the same source

Binder	Cathepsin B inhibition test, 2 mM peptide
Ac-NQKNNN-OH (also: MGO-modified, site not given here) [MGO-modified Ac-NQKNNN-OH]	87.5
Ac-NQKNNN-OH [Ac-NQKNNN-OH]	147
Ac-NQKN-OH (also: MGO-modified, site not given here) [MGO-modified Ac-NQKN-OH]	102
Ac-NQKNNNQN-OH [Ac-NQKNNNQN-OH]	290
Ac-NQKNNNQN-OH (also: MGO-modified, site not given here) [MGO-modified Ac-NQKNNNQN-OH]	171
Ac-NQKN-OH [Ac-NQKN-OH]	282

Target: T1, Cathepsin B from bovine spleen
Assay: cell-based or functional assay
Remark: another data set of the same source

Binder	Cathepsin B inhibition test, 2 mM peptide
Ac-QNDNR-OH [Ac-QNDNR-OH]	162
Ac-QNDNR-OH (also: MGO-modified, site not given here) [MGO-modified Ac-QNDNR-OH]	132
Ac-QNGNK-OH [Ac-QNGNK-OH]	187
H-QNDNK-OH [H-QNDNK-OH]	104
H-QNGNR-OH (also: MGO-modified, site not given here) [MGO-modified H-QNGNR-OH]	85
Ac-QNGNR-OH (also: MGO-modified, site not given here) [MGO-modified Ac-QNGNR-OH]	88.7
H-QNDNR-OH [H-QNDNR-OH]	162
H-QNGNK-OH [H-QNGNK-OH]	171
H-QNGNR-OH [H-QNGNR-OH]	74.4
Ac-QNDNK-OH (also: MGO-modified, site not given here) [MGO-modified Ac-QNDNK-OH]	122
Ac-QNGNR-OH [Ac-QNGNR-OH]	101
Ac-QNGNK-OH (also: MGO-modified, site not given here) [MGO-modified Ac-QNGNK-OH]	89.2
H-QNGNK-OH (also: MGO-modified, site not given here) [MGO-modified H-QNGNK-OH]	119
Ac-QNDNK-OH [Ac-QNDNK-OH]	167
H-QNDNK-OH (also: MGO-modified, site not given here) [MGO-modified H-QNDNK-OH]	68.4
